Test results reported in patent publication US20230068783A1 (TAVOTEK BIOTHERAPEUTICS HONG KONG, published 2023).

B4: Rhesus monkey IL-1β (ligand, UniProt P48090 117-269, looked up)
chain: APVRSLHCTLRDAQLKSLVMSGPYELKALHLQGQDLEQQVVFSMSFVQGEESNDKIPVALGLKAKNLYLSCVLKDDKPTLQLESVDPKNYPKKKMEKRFVFNKIEINNKLEFESAQFPNWYISTSQAENMPVFLGGTRGGQDITDFTMQFVSS

What was measured:
human IL-1α = molecular target: T1, human IL-1α (human, UniProt P01583 113-271); assay: ELISA with purified recombinant protein
T1 construct: Purified recombinant protein
T1 sequence (looked up): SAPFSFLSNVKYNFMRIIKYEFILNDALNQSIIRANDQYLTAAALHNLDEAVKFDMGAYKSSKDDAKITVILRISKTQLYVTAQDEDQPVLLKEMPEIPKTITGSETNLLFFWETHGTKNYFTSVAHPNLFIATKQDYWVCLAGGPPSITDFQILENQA
Experimental: To evaluate the binding specificity, cytokines homologous to IL-1β such as IL-1α were evaluated for binding to humanized antibodies in ELISA-based binding assay with purified recombinant protein.

Rhesus monkey IL-1β [1] = molecular target: B4; assay: cell-based or functional assay
[2] = molecular target: T2, recombinant human IL-1β (R&D systems) (human, UniProt P01584 117-269); assay: cell-based or functional assay
[3] = molecular target: T2, recombinant human IL-1β (R&D systems); assay: ELISA, 1 µg/ml recombinant human IL-1β coated, HRP anti-mouse secondary antibody
Experimental: (§1) By hybridoma screening, TAVO304 was identified as a mouse anti-human IL-1β antibody. ELISA-based binding assay was employed to evaluate TAVO304 binding to recombinant human IL-1β. In this assay, 1 μg/ml recombinant human IL-1β (R&D systems) were coated on ELISA plate. Increasing concentrations of TAVO304 antibodies were applied on the plate and their binding to the recombinant human IL-1P were detected by HRP-conjugated anti-mouse secondary antibody.

mouse IL-1β = molecular target: T3, mouse IL-1β (mouse, UniProt P10749 118-269); assay: ELISA, plate coated with mouse IL-1β
T3 sequence (looked up): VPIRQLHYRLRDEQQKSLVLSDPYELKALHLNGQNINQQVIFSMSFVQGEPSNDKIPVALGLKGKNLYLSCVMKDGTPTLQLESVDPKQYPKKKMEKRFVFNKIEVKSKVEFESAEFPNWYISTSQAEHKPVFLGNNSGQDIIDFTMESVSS
Experimental: as §1
(§2) The binding of TAVO304 to mouse and Rhesus monkey IL-1β were also evaluated in similar ELISA assay by coating the plate with mouse and Rhesus monkey IL-1β respectively.

Rhesus monkey IL-1β [4] = molecular target: B4; assay: ELISA, plate coated with Rhesus monkey IL-1β
Experimental: as §1, §2

[5] = molecular target: T4, IL-1β receptor IL-1R on the surface of HEK-Blue IL-1β cells (UniProt P14778 18-569, limits assumed); assay: cell-based or functional assay
T4 sequence (looked up): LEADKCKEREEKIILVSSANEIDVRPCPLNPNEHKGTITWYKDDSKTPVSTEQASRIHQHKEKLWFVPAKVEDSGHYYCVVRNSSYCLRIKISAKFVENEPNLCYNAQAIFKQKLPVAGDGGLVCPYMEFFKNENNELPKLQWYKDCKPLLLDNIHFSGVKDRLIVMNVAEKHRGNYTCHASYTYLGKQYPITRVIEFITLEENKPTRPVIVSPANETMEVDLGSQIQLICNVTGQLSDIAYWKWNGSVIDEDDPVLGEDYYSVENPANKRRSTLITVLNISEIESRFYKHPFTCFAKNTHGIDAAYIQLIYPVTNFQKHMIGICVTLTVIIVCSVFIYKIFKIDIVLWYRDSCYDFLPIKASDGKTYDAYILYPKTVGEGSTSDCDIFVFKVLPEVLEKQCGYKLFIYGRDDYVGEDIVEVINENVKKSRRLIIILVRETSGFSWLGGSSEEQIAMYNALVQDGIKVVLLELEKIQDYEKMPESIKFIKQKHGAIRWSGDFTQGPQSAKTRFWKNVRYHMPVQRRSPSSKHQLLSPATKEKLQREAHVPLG

B1: TAVO7376 (humanized IgG1 antibody, 304VH1 with 304VL1) (antibody, V domains shown)
VH: EVQLVESGGGLVQPGGSLRLSCAASGFTFSSFGMHWVRQAPGKGLEWVAYISIGSYTVHYADSVKGRFTISRDNAKNSLYLQMNSLRDEDTAVYYCVRDDYDVTDYTMDYWGQGTTVTVSS
VL: DIQMTQSPSSLSASVGDRVTITCKSSQSLLNSRTRKNYLAWYQQKPGKAPKLLIYWASTRESGVPSRFSGSGSGTDFTLTISSLQPEDFATYYCKQTYNFPTFGQGTKLEIKR
notes: Humanized IgG1
binding result (human IL-1α): no binding (tested: 1 ug/mL) | IC50 of neutralizing rhesus monkey IL-1β driven reporter gene expression, HEK-Blue IL-1β reporter assay (Rhesus monkey IL-1β [1]): ~0.018 µg/mL | IC50 of blocking human IL-1β-mediated IL-6 release from MRC-5 cells [2]: ~0.05 µg/mL | IC50 of neutralizing human IL-1β driven reporter gene expression, HEK-Blue IL-1β reporter assay [2]: ~0.09 µg/mL

B2: TAVO7377 (humanized IgG1 antibody, 304VH1 with 304VL2) (antibody, V domains shown)
VH: EVQLVESGGGLVQPGGSLRLSCAASGFTFSSFGMHWVRQAPGKGLEWVAYISIGSYTVHYADSVKGRFTISRDNAKNSLYLQMNSLRDEDTAVYYCVRDDYDVTDYTMDYWGQGTTVTVSS
VL: DIQMTQSPSSLSASVGDRVTMTCKSSQSLLNSRTRKNYLAWYQQKPGKAPKLLIYWASTRESGVPSRFSGSGSGTDFTLTISSVQPEDLATYYCKQTYNFPTFGQGTKLEIKR
notes: Humanized IgG1
binding result (human IL-1α): no binding (tested: 1 ug/mL) | IC50 of neutralizing rhesus monkey IL-1β driven reporter gene expression, HEK-Blue IL-1β reporter assay (Rhesus monkey IL-1β [1]): ~0.018 µg/mL | IC50 of blocking human IL-1β-mediated IL-6 release from MRC-5 cells [2]: ~0.05 µg/mL | IC50 of neutralizing human IL-1β driven reporter gene expression, HEK-Blue IL-1β reporter assay [2]: ~0.09 µg/mL

B3: mouse monoclonal anti-human IL-1β antibody TAVO304 (antibody, V domains shown)
VH: DVQLVESGGGLVQPGGSRKLSCAASGFTFSSFGMHWVRQAPEKGLEWVAYISIGSYTVHYADTVKGRFTISRDNPKNTLFLQMTSLRSEDTAMYYCVRDDYDVTDYTMDYWGQGTSVTVSS
VL: DIVMSQSPSSLAVSTGEKVTMSCKSSQSLLNSRTRKNYLAWYQQKPGQSPKLLIYWASTRESGVPDRFTGSGSGTDFTLTIGSVQAEDLAVYYCKQTYNFPTFGGGTKLEIK
notes: Mouse monoclonal antibody from hybridoma screening
IC50 of neutralizing rhesus monkey IL-1β driven reporter gene expression, HEK-Blue IL-1β reporter assay (Rhesus monkey IL-1β [1]): 0.0036 µg/mL | IC50 of neutralizing human IL-1β driven reporter gene expression, HEK-Blue IL-1β reporter assay [2]: 0.12 µg/mL | fold potency against reference antibody refAb-1 in IL-1β inhibition, HEK-Blue IL-1β reporter assay [2]: > 6 fold | EC50 [3]: 0.0036 µg/mL | binding result (mouse IL-1β): no binding | EC50 (Rhesus monkey IL-1β [4]): 0.0122 µg/mL

B4
EC50 of reporter gene (SEAP) expression in HEK-Blue IL-1β reporter assay [5]: 0.00016 µg/mL
